According to patent US20230279087A1 (INFLARX, published 2023):

Key:
recombinant human C5a [1] = molecular target: T1, recombinant human C5a (human, UniProt P01031 678-751); experiment: ELISA on C5a (ABZENA), 0-100 ng/mL antibody
T1 construct: Bought rhC5a (Hycult HC2101 for the ELISA, Sigma C5788 for the CD11b assay); also called rhC5a; hC5a
T1 sequence: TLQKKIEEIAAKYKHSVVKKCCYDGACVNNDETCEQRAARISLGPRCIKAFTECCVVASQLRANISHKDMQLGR

recombinant human C5a [2] = molecular target: T1, recombinant human C5a; experiment: cell-based or functional assay

B1: VH4Vk3 (IFX-2 clone) (antibody, IgG4)
heavy: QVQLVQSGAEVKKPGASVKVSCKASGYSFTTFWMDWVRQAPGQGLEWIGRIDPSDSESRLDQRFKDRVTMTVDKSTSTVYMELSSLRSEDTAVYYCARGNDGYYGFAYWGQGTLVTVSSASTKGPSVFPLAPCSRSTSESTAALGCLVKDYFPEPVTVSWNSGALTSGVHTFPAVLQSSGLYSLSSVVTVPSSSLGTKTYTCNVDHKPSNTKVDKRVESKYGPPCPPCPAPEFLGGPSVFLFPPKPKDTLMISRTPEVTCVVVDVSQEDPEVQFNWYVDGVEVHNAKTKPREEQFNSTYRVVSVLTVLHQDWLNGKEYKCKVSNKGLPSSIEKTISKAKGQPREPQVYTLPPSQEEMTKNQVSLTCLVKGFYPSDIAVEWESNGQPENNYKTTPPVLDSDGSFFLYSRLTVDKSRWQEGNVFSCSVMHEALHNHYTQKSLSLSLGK
light: DIQLTQSPSSLSASVGDRVTITCKASQSVDYDGDSYMKWYQQKPGKAPKLLIYAASNLQSGIPSRFSGSGSGTDFTLTISSLQPEDFATYYCQQSNEDPYTFGQGTKLEIK
notes: Humanized IgG4 (S241P) / kappa; also called VH4/Vκ3; not shown: human kappa light chain constant domain
With B1 the “Relative EC50” value (recombinant human C5a [1]) was 0.91 relative to IFX-1 (VH0Vk0) and the “relative blocking activity on rhC5a-induced CD11b upregulation on granulocytes in human whole blood (flow cytometry MFI), 16.7 nM rhC5a, Ag:Ab 1:1, IFX-1 set to 100% [lower graph]” value (recombinant human C5a [2]) was 102%.

B2: VH5Vk3 (IFX-2 clone) (antibody, IgG4)
heavy: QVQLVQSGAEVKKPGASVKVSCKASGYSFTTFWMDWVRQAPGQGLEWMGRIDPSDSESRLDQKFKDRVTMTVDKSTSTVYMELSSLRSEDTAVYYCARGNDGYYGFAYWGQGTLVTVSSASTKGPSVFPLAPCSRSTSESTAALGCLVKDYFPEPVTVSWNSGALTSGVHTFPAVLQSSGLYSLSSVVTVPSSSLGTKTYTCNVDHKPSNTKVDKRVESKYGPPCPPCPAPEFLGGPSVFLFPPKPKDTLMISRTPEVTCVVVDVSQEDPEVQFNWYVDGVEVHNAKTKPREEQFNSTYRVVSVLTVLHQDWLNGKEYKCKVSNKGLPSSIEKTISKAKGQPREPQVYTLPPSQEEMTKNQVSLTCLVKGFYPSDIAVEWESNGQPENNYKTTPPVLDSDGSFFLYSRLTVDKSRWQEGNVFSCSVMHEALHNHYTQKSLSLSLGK
light: DIQLTQSPSSLSASVGDRVTITCKASQSVDYDGDSYMKWYQQKPGKAPKLLIYAASNLQSGIPSRFSGSGSGTDFTLTISSLQPEDFATYYCQQSNEDPYTFGQGTKLEIK
notes: Humanized IgG4 (S241P) / kappa; also called VH5/Vκ3; not shown: human kappa light chain constant domain
With B2 the “Relative EC50” value (recombinant human C5a [1]) was 1.14 relative to IFX-1 (VH0Vk0) and the “relative blocking activity on rhC5a-induced CD11b upregulation on granulocytes in human whole blood (flow cytometry MFI), 16.7 nM rhC5a, Ag:Ab 1:1, IFX-1 set to 100% [upper graph]” value (recombinant human C5a [2]) was 96%.

B3: VH4Vk1 (IFX-2 clone) (antibody, IgG4, V domains shown)
VH: QVQLVQSGAEVKKPGASVKVSCKASGYSFTTFWMDWVRQAPGQGLEWIGRIDPSDSESRLDQRFKDRVTMTVDKSTSTVYMELSSLRSEDTAVYYCARGNDGYYGFAYWGQGTLVTVSS
VL: DIVLTQSPASLAASVGDRVTITCKASQSVDYDGDSYMKWYQQKPGKAPKLLIYAASNLQSGIPSRFSGSGSGTDFTLTISSLQEEDFATYYCQQSNEDPYTFGQGTKLEIK
notes: Humanized IgG4 (S241P) / kappa; also called VH4/Vκ1; not shown: human kappa light chain constant domain
For B3, the “Relative EC50” value (recombinant human C5a [1]) was 1 relative to IFX-1 (VH0Vk0) and the “relative blocking activity on rhC5a-induced CD11b upregulation on granulocytes in human whole blood (flow cytometry MFI), 16.7 nM rhC5a, Ag:Ab 1:1, IFX-1 set to 100% [upper graph]” value (recombinant human C5a [2]) was 98%.

B4: VH4Vk2 (IFX-2 clone) (antibody, IgG4)
heavy: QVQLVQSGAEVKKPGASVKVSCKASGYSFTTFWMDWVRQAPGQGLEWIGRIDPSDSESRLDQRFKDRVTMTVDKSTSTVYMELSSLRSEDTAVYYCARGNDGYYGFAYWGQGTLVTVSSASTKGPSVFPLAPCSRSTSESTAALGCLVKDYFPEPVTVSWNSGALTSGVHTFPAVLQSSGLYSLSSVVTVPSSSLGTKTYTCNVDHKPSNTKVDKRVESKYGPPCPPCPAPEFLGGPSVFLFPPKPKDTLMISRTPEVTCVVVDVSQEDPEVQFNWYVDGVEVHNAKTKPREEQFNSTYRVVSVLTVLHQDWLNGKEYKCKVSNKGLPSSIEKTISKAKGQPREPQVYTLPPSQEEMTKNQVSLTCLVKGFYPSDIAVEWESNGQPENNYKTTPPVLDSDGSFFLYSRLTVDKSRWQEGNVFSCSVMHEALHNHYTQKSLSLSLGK
light: DIVLTQSPASLSASVGDRVTITCKASQSVDYDGDSYMKWYQQKPGKAPKLLIYAASNLQSGIPSRFSGSGSGTDFTLTISSLQPEDFATYYCQQSNEDPYTFGQGTKLEIK
notes: Humanized IgG4 (S241P) / kappa; also called VH4/Vκ2; not shown: human kappa light chain constant domain
With B4 the “Relative EC50” value (recombinant human C5a [1]) was 0.86 relative to IFX-1 (VH0Vk0) and the “relative blocking activity on rhC5a-induced CD11b upregulation on granulocytes in human whole blood (flow cytometry MFI), 16.7 nM rhC5a, Ag:Ab 1:1, IFX-1 set to 100% [lower graph]” value (recombinant human C5a [2]) was 104%.

B5: VH4Vk4 (IFX-2 clone) (antibody, IgG4, V domains shown)
VH: QVQLVQSGAEVKKPGASVKVSCKASGYSFTTFWMDWVRQAPGQGLEWIGRIDPSDSESRLDQRFKDRVTMTVDKSTSTVYMELSSLRSEDTAVYYCARGNDGYYGFAYWGQGTLVTVSS
VL: DIQMTQSPSSLSASVGDRVTITCKASQSVDYDGDSYMKWYQQKPGKAPKLLIYAASNLQSGVPSRFSGSGSGTDFTLTISSLQPEDFATYYCQQSNEDPYTFGQGTKLEIK
notes: Humanized IgG4 (S241P) / kappa; also called VH4/Vκ4; not shown: human kappa light chain constant domain
For B5, the “Relative EC50” value (recombinant human C5a [1]) was 1.03 relative to IFX-1 (VH0Vk0) and the “relative blocking activity on rhC5a-induced CD11b upregulation on granulocytes in human whole blood (flow cytometry MFI), 16.7 nM rhC5a, Ag:Ab 1:1, IFX-1 set to 100% [upper graph]” value (recombinant human C5a [2]) was 102%.

B6: VH3Vk2 (IFX-2 clone) (antibody, IgG4, V domains shown)
VH: QVQLVQSGAEVKKPGASVKVSCKASGYSFTTFWMDWVRQAPGQGLEWIGRIDPSDSESRLDQRFKDRATLTVDKSTSTVYMELSSLRSEDTAVYYCARGNDGYYGFAYWGQGTLVTVSS
VL: DIVLTQSPASLSASVGDRVTITCKASQSVDYDGDSYMKWYQQKPGKAPKLLIYAASNLQSGIPSRFSGSGSGTDFTLTISSLQPEDFATYYCQQSNEDPYTFGQGTKLEIK
notes: Humanized IgG4 (S241P) / kappa; also called VH3/Vκ2; not shown: human kappa light chain constant domain
For B6, the “Relative EC50” value (recombinant human C5a [1]) was 1.05 relative to IFX-1 (VH0Vk0) and the “relative blocking activity on rhC5a-induced CD11b upregulation on granulocytes in human whole blood (flow cytometry MFI), 16.7 nM rhC5a, Ag:Ab 1:1, IFX-1 set to 100% [upper graph]” value (recombinant human C5a [2]) was 96%.

B7: VH5Vk4 (IFX-2 clone) (antibody, IgG4, V domains shown)
VH: QVQLVQSGAEVKKPGASVKVSCKASGYSFTTFWMDWVRQAPGQGLEWMGRIDPSDSESRLDQKFKDRVTMTVDKSTSTVYMELSSLRSEDTAVYYCARGNDGYYGFAYWGQGTLVTVSS
VL: DIQMTQSPSSLSASVGDRVTITCKASQSVDYDGDSYMKWYQQKPGKAPKLLIYAASNLQSGVPSRFSGSGSGTDFTLTISSLQPEDFATYYCQQSNEDPYTFGQGTKLEIK
notes: Humanized IgG4 (S241P) / kappa; also called VH5/Vκ4; not shown: human kappa light chain constant domain
In the case of B7, the “Relative EC50” value (recombinant human C5a [1]) is reported as 1.53 relative to IFX-1 (VH0Vk0) and the “relative blocking activity on rhC5a-induced CD11b upregulation on granulocytes in human whole blood (flow cytometry MFI), 16.7 nM rhC5a, Ag:Ab 1:1, IFX-1 set to 100% [upper graph]” value (recombinant human C5a [2]) is reported as 94%.

B8: VH5Vk2 (IFX-2 clone) (antibody, IgG4)
heavy: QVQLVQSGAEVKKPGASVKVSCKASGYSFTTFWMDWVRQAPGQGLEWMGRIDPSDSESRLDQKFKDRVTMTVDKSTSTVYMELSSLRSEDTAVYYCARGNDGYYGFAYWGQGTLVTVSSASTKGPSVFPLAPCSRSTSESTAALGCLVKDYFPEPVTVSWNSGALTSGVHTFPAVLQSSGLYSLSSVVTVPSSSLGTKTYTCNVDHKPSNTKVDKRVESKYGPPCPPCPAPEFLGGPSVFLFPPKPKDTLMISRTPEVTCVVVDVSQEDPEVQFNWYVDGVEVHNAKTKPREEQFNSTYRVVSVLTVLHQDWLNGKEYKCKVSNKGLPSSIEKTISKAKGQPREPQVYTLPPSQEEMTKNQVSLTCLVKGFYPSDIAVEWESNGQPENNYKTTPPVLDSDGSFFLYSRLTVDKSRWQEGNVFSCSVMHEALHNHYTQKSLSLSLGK
light: DIVLTQSPASLSASVGDRVTITCKASQSVDYDGDSYMKWYQQKPGKAPKLLIYAASNLQSGIPSRFSGSGSGTDFTLTISSLQPEDFATYYCQQSNEDPYTFGQGTKLEIK
notes: Humanized IgG4 (S241P) / kappa; also called VH5/Vκ2; not shown: human kappa light chain constant domain
B8 was tested, and the “Relative EC50” value (recombinant human C5a [1]) was 1.05 relative to IFX-1 (VH0Vk0) and the “relative blocking activity on rhC5a-induced CD11b upregulation on granulocytes in human whole blood (flow cytometry MFI), 16.7 nM rhC5a, Ag:Ab 1:1, IFX-1 set to 100% [lower graph]” value (recombinant human C5a [2]) was 103%.

B9: VH2Vk4 (IFX-2 clone) (antibody, IgG4, V domains shown)
VH: QVQLVQSGAEVKKPGASVKISCKASGYSFTTFWMDWVKQAPGQGLEWIGRIDPSDSESRLDQRFKDRATLTVDKSTSTVYMELSSLRSEDTAVYYCARGNDGYYGFAYWGQGTLVTVSS
VL: DIQMTQSPSSLSASVGDRVTITCKASQSVDYDGDSYMKWYQQKPGKAPKLLIYAASNLQSGVPSRFSGSGSGTDFTLTISSLQPEDFATYYCQQSNEDPYTFGQGTKLEIK
notes: Humanized IgG4 (S241P) / kappa; also called VH2/Vκ4; not shown: human kappa light chain constant domain
For B9, the “Relative EC50” value (recombinant human C5a [1]) was 0.99 relative to IFX-1 (VH0Vk0).

B10: VH3Vk4 (IFX-2 clone) (antibody, IgG4, V domains shown)
VH: QVQLVQSGAEVKKPGASVKVSCKASGYSFTTFWMDWVRQAPGQGLEWIGRIDPSDSESRLDQRFKDRATLTVDKSTSTVYMELSSLRSEDTAVYYCARGNDGYYGFAYWGQGTLVTVSS
VL: DIQMTQSPSSLSASVGDRVTITCKASQSVDYDGDSYMKWYQQKPGKAPKLLIYAASNLQSGVPSRFSGSGSGTDFTLTISSLQPEDFATYYCQQSNEDPYTFGQGTKLEIK
notes: Humanized IgG4 (S241P) / kappa; also called VH3/Vκ4; not shown: human kappa light chain constant domain
In the case of B10, the “Relative EC50” value (recombinant human C5a [1]) is reported as 0.86 relative to IFX-1 (VH0Vk0) and the “relative blocking activity on rhC5a-induced CD11b upregulation on granulocytes in human whole blood (flow cytometry MFI), 16.7 nM rhC5a, Ag:Ab 1:1, IFX-1 set to 100% [lower graph]” value (recombinant human C5a [2]) is reported as 103%.

B11: VH2Vk3 (IFX-2 clone) (antibody, IgG4, V domains shown)
VH: QVQLVQSGAEVKKPGASVKISCKASGYSFTTFWMDWVKQAPGQGLEWIGRIDPSDSESRLDQRFKDRATLTVDKSTSTVYMELSSLRSEDTAVYYCARGNDGYYGFAYWGQGTLVTVSS
VL: DIQLTQSPSSLSASVGDRVTITCKASQSVDYDGDSYMKWYQQKPGKAPKLLIYAASNLQSGIPSRFSGSGSGTDFTLTISSLQPEDFATYYCQQSNEDPYTFGQGTKLEIK
notes: Humanized IgG4 (S241P) / kappa; also called VH2/Vκ3; not shown: human kappa light chain constant domain
In the case of B11, the “Relative EC50” value (recombinant human C5a [1]) is reported as 1.09 relative to IFX-1 (VH0Vk0).

B12: VH5Vk1 (IFX-2 clone) (antibody, IgG4, V domains shown)
VH: QVQLVQSGAEVKKPGASVKVSCKASGYSFTTFWMDWVRQAPGQGLEWMGRIDPSDSESRLDQKFKDRVTMTVDKSTSTVYMELSSLRSEDTAVYYCARGNDGYYGFAYWGQGTLVTVSS
VL: DIVLTQSPASLAASVGDRVTITCKASQSVDYDGDSYMKWYQQKPGKAPKLLIYAASNLQSGIPSRFSGSGSGTDFTLTISSLQEEDFATYYCQQSNEDPYTFGQGTKLEIK
notes: Humanized IgG4 (S241P) / kappa; also called VH5/Vκ1; not shown: human kappa light chain constant domain
In the case of B12, the “Relative EC50” value (recombinant human C5a [1]) is reported as 1.28 relative to IFX-1 (VH0Vk0) and the “relative blocking activity on rhC5a-induced CD11b upregulation on granulocytes in human whole blood (flow cytometry MFI), 16.7 nM rhC5a, Ag:Ab 1:1, IFX-1 set to 100% [lower graph]” value (recombinant human C5a [2]) is reported as 101%.

B13: IFX-1 (VH0/Vκ0), chimeric anti-human C5a IgG4 antibody (antibody, V domains shown)
VH: QVQLQQSGPQLVRPGTSVKISCKASGYSFTTFWMDWVKQRPGQGLEWIGRIDPSDSESRLDQRFKDRATLTVDKSSSTVYMQLSSPTSEDSAVYYCARGNDGYYGFAYWGQGTLVTVSS
VL: DIVLTQSPASLAVSLGQRATISCKASQSVDYDGDSYMKWYQQKPGQPPKLLIYAASNLQSGIPARFSGSGSGTDFTLNIHPVEEEDAATYYCQQSNEDPYTFGGGTKLEIK
notes: also called VH0Vk0; VH0Vk0 (IFX-1); not shown: human kappa light chain constant domain
With B13 the “Relative EC50” value (recombinant human C5a [1]) was 1 relative to IFX-1 (VH0Vk0).
